This note sets out measurements from patent US20030068675, “Position dependent recognition of GNN nucleotide triplets by zinc fingers” (published 2003).

Assay in all cases: EMSA
Holding throughout (details): tags: MBP fusion

One data set addresses T1, ZFP SBS#1481 (synthetic).
T1 chain: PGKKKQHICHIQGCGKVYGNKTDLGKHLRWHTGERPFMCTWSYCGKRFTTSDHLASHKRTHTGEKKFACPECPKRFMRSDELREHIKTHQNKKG
Summed up:
(§1)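 Purified ZFP was titrated against labeled double-stranded target (1 nM or lower, at least 10-fold below expected Kd) carrying the natural binding site with flanks. Binding buffer was 10 mM Tris pH 7.5, 100 mM KCl, 1 mM MgCl2, 0.1 mM ZnCl2, 5 mM DTT, 10% glycerol, 0.02% BSA, with equilibration for at least 45 min. Bound and free target were separated on a 10% polyacrylamide gel.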

For another data set, the target named is T2, ZFP SBS#1479 (synthetic).
T2 chain: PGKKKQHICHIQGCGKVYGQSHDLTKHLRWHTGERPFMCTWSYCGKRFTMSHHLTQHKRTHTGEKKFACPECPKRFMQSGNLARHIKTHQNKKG
Summed up:
as §1

The target in the next data set is T3, ZFP SBS#1480 (synthetic).
T3 chain: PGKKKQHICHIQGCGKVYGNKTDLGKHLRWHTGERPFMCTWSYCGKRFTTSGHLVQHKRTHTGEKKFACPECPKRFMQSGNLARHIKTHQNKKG
Summed up:
as §1

The target of a further data set is ZFP SBS#1455 (synthetic). A digest of the protocol:
as §1

The target in the next data set is ZFP SBS#1462 (synthetic). A digest of the protocol:
as §1

The target in another data set is T4, ZFP SBS#1471 (synthetic).
T4 chain: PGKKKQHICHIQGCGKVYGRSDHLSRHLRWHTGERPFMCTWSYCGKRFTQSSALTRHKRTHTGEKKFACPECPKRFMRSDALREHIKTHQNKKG
Summed up:
as §1

A further data set addresses T5, ZFP SBS#1490 (synthetic).
T5 chain: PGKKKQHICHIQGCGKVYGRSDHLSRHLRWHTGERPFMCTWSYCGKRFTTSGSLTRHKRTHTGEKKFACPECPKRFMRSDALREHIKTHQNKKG
A digest of the protocol: as §1

A further data set has as its target ZFP SBS#1485 (synthetic). A digest of the protocol:
as §1

A further data set has as its target T6, ZFP SBS#1487 (synthetic).
T6 chain: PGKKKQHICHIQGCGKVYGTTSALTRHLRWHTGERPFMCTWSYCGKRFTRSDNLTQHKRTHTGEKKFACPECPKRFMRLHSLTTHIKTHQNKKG
A digest of the protocol:
as §1

In the next data set the target is T7, ZFP SBS#1473 (synthetic).
T7 chain: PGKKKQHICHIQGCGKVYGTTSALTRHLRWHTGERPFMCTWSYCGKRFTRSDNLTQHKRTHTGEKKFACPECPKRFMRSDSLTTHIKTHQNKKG
Summed up:
as §1

The next data set deals with T8, ZFP SBS#1472 (synthetic).
T8 chain: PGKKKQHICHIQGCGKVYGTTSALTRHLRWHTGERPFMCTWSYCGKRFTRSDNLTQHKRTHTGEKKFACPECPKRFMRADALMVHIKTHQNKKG
Summed up: as §1

In another data set the target is T9, ZFP SBS#1474 (synthetic).
T9 chain: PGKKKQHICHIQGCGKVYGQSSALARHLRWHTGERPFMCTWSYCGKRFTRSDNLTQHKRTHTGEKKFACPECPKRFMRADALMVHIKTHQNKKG
A digest of the protocol:
as §1

The target in a further data set is T10, ZFP SBS#1476 (synthetic).
T10 chain: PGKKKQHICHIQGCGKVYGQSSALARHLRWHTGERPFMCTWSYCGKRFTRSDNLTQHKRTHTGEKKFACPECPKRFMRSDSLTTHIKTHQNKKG
A digest of the protocol: as §1

The target of another data set is T11, ZFP SBS#1475 (synthetic).
T11 chain: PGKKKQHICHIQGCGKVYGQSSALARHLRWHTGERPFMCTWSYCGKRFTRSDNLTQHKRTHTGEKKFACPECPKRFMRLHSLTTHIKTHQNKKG
Summed up:
as §1

For a further data set, the target named is ZFP SBS#1463 (synthetic). A digest of the protocol:
as §1

The next data set deals with T12, ZFP SBS#1491 (synthetic).
T12 chain: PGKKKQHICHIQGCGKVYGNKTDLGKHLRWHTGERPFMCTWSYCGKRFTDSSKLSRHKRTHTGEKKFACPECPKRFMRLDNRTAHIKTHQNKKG
A digest of the protocol: as §1

A further data set has as its target T13, ZFP SBS#1482 (synthetic).
T13 chain: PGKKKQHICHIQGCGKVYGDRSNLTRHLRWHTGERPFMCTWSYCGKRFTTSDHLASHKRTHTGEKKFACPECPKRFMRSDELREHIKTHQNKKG
Summed up:
as §1

A further data set deals with T14, ZFP SBS#1483 (synthetic).
T14 chain: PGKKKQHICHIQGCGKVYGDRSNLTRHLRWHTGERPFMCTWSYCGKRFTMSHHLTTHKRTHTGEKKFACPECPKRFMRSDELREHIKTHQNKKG
A digest of the protocol: as §1

Another data set addresses T15, ZFP SBS#1466 (synthetic).
T15 chain: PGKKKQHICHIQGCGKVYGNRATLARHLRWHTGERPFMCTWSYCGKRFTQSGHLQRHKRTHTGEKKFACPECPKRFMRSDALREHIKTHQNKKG
A digest of the protocol:
as §1

The target of the next data set is T16, ZFP SBS#1465 (synthetic).
T16 chain: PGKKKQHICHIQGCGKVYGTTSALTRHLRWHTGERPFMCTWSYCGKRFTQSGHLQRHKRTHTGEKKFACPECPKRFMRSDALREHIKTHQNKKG
A digest of the protocol:
as §1

The next data set has as its target T17, ZFP SBS#1464 (synthetic).
T17 chain: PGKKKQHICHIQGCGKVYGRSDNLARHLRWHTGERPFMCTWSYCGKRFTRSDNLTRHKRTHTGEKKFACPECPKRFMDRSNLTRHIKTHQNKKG
A digest of the protocol: as §1

A further data set has as its target T18, ZFP SBS#1461 (synthetic).
T18 chain: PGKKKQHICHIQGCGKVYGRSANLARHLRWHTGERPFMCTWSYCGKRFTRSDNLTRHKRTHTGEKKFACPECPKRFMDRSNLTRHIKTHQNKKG
Summed up: as §1

For another data set, the target named is T19, ZFP SBS#1477 (synthetic).
T19 chain: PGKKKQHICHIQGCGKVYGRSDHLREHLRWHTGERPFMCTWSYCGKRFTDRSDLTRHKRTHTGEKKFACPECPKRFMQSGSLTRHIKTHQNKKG
Summed up:
as §1

The next data set addresses ZFP SBS#1454 (synthetic). A digest of the protocol:
as §1

The next data set has as its target ZFP SBS#1456 (synthetic). Summed up:
as §1

A further data set has as its target T20, ZFP SBS#1468 (synthetic).
T20 chain: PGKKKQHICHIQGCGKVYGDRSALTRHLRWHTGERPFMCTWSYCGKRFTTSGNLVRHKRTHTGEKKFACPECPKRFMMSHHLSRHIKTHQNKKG
Summed up:
as §1

In a further data set the target is T21, ZFP SBS#1470 (synthetic).
T21 chain: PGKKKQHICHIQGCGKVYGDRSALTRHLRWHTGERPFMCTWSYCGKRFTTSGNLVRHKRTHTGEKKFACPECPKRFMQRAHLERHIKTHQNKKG
A digest of the protocol:
as §1

A further data set concerns the target T22, ZFP SBS#1469 (synthetic).
T22 chain: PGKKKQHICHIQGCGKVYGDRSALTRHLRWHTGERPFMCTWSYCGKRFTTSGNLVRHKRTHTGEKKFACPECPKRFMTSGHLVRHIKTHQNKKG
Summed up:
as §1

Another data set has as its target ZFP SBS#1262 (synthetic). A digest of the protocol:
as §1

Another data set has as its target ZFP SBS#1263 (synthetic). Summed up:
as §1

The target in a further data set is ZFP SBS#1261 (synthetic). A digest of the protocol:
as §1

A further data set concerns the target ZFP SBS#558 (synthetic). A digest of the protocol: as §1
In the next data set the target is ZFP SBS#1484 (synthetic). Summed up:
as §1

Sequence of ZFP SBS#1455 (synthetic) (chain, as listed by the source): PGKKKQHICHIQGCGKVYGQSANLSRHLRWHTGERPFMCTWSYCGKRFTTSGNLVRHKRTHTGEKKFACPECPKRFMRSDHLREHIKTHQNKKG
Sequence of ZFP SBS#558 (synthetic) (chain, as listed by the source): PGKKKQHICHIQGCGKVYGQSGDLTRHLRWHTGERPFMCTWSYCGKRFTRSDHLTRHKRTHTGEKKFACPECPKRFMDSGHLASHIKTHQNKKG
Sequence of ZFP SBS#1484 (synthetic) (chain, as listed by the source): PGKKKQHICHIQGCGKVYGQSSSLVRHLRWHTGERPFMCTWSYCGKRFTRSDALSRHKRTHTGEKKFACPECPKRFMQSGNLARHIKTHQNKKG
Sequence of ZFP SBS#1456 (synthetic) (chain, as listed by the source): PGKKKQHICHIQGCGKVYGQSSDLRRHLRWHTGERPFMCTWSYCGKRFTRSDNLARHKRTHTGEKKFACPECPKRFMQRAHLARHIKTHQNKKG
Sequence of ZFP SBS#1462 (synthetic) (chain, as listed by the source): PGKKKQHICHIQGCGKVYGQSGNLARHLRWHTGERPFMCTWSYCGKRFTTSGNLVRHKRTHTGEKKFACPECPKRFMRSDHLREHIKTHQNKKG
Sequence of ZFP SBS#1262 (synthetic) (chain, as listed by the source): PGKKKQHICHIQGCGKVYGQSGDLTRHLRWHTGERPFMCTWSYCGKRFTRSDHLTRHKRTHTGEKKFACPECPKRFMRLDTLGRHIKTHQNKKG

B1: GAAAGTTCA (dsDNA)
DNA 1: GAAAGTTCA
DNA 2: TGAACTTTC
With B1, the Kd in the data set with ZFP SBS#1481 stood at 37 nM; with ZFP SBS#1479, 37 nM; with ZFP SBS#1480, 62.5 nM.

B2: CGGGATGAA (dsDNA)
DNA 1: CGGGATGAA
DNA 2: TTCATCCCG
As to B2, the results for the dissociation constant (Kd) with ZFP SBS#1455 and in the data set with ZFP SBS#1462 were 0.043 nM and 0.05 nM, respectively.

B3: CTGGTTGGG (dsDNA)
DNA 1: CTGGTTGGG
DNA 2: CCCAACCAG
Regarding B3, the figures for the Kd with ZFP SBS#1471 and with ZFP SBS#1490 were 0.09 nM and 0.04 nM, respectively.

B4: AAGTGAGCT (dsDNA)
DNA 1: AAGTGAGCT
DNA 2: AGCTCACTT
In the data set with ZFP SBS#1485, B4 came in with a Kd of 1.54 nM.

B5: TTGAAGGTT (dsDNA)
DNA 1: TTGAAGGTT
DNA 2: AACCTTCAA
Consider B5, for which the Kd in the data set with ZFP SBS#1487 was 0.188 nM; with ZFP SBS#1473 it was 0.47 nM; in the data set with ZFP SBS#1472, 3.22 nM; in the data set with ZFP SBS#1474 it was 1.39 nM; in the data set with ZFP SBS#1476 it was 0.305 nM; in the data set with ZFP SBS#1475, 0.39 nM.

B6: GAGGCTGTT (dsDNA)
DNA 1: GAGGCTGTT
DNA 2: AACAGCCTC
In the data set with ZFP SBS#1463, B6 gave a dissociation constant (Kd) of 0.003 nM.

B7: AAGGGTTCA (dsDNA)
DNA 1: AAGGGTTCA
DNA 2: TGAACCCTT
In the case of B7, in the data set with ZFP SBS#1491, the Kd was 4.12 nM.

B8: CCGTGTGAC (dsDNA)
DNA 1: CCGTGTGAC
DNA 2: GTCACACGG
For the molecule B8, the Kd with ZFP SBS#1482 stood at 111 nM; with ZFP SBS#1483, 20.8 nM.

B9: CTGGGAGTT (dsDNA)
DNA 1: CTGGGAGTT
DNA 2: AACTCCCAG
As for B9, the Kd came to 0.017 nM with ZFP SBS#1466 and 0.018 nM in the data set with ZFP SBS#1465.

B10: GACGAGGAG (dsDNA)
DNA 1: GACGAGGAG
DNA 2: CTCCTCGTC
Consider B10, for which the Kd with ZFP SBS#1464 came to 0.002 nM; in the data set with ZFP SBS#1461, 0.014 nM.

B11: GCAGCCCGG (dsDNA)
DNA 1: GCAGCCCGG
DNA 2: CCGGGCTGC
With B11, in the data set with ZFP SBS#1477, the dissociation constant (Kd) was 2.31 nM.

B12: GGAGAGGCT (dsDNA)
DNA 1: GGAGAGGCT
DNA 2: AGCCTCTCC
On to B12, for which the results for the Kd in the data set with ZFP SBS#1454 and with ZFP SBS#1456 were 0.01 nM and 0.016 nM, respectively.

B13: GGTGATGTC (dsDNA)
DNA 1: GGTGATGTC
DNA 2: GACATCACC
Regarding B13, the Kd came out at 0.08 nM with ZFP SBS#1468, 0.156 nM with ZFP SBS#1470 and 0.28 nM with ZFP SBS#1469.

B14: TGCGGGGCA (dsDNA)
DNA 1: TGCGGGGCA
DNA 2: TGCCCCGCA
For the molecule B14, the Kd came out at 3 nM in the data set with ZFP SBS#1262, 21 nM in the data set with ZFP SBS#1263, 0.2 nM in the data set with ZFP SBS#1261 and 21 nM with ZFP SBS#558.

B15: GAAGTGGTA (dsDNA)
DNA 1: GAAGTGGTA
DNA 2: TACCACTTC
For the molecule B15, in the data set with ZFP SBS#1484, the affinity, expressed as Kd, was 0.01 nM.

Broadly, the Kd is the free concentration of one partner at which half of the binding sites on the other are occupied at equilibrium, for simple one-to-one binding. Read a low Kd as a tighter complex.
